Measured values as given in publication PMC3791895 (mBio, 2013).

Target: the molecule itself
Test: SEC

B1: Enterococcus faecalis FabI enoyl-ACP reductase (enzyme, UniProt Q820V5 1-250, looked up)
chain: MFLQNKNVVVMGVANKKSIAWGCAKALKDQGANVIYTYQNERMKKQVVKLADENDLLVECDVASDASIQAAFETIKNEVGTIDGLVHAIAFAKKEELSGNVSDITRDGFLLAQDISSYSLLAVTHYAKPLLNPGSGIVTLTYLGSERAIPNYNMMGIAKASLETAVKYLAFELAADKIRVNGISAGAIKTLAVTGVKDYDQLISISNERTPDKTGVTIEEVGNTCAFLVSDLASGVVGDIIYVDKGVHLT
- stoichiometry N: 2
